From PMC10075959 (Science Advances, 2023)

Biological target: the molecule itself
Assay: AUC

Protein | binding result
MAGNGCDAALALLLLDRLNQLESKMSGKGQQQQGQTV [NLRS:G215C peptide, listing 1 of 2 here] | binds
MAGNGCDAALALMLLDRLNQLESKMSGKGQQQQGQTV [NLRS:L222M/G215C double mutant peptide] | binds
MAGNGGDAALALMLLDRLNQLESKMSGKGQQQQGQTV [NLRS:L222M peptide] | binds
MAGNGSDAALALLLLDRLNQLESKMSGKGQQQQGQTV [NLRS:G215S peptide, listing 1 of 2 here] | binds

Biological target: the molecule itself
Assay: AUC
Remark: another data set of the same source

Protein | binding result
MAGNGCDAALALLLLDRLNQLESKMSGKGQQQQGQTV [NLRS:G215C peptide, listing 2 of 2 here] | binds
MAGNGSDAALALLLLDRLNQLESKMSGKGQQQQGQTV [NLRS:G215S peptide, listing 2 of 2 here] | binds
